Where no end group is shown, it is not given here. The star is where a group is joined. DMNB = 4,5-dimethoxy-2-nitrobenzyl photo-removable caging group, COc1cc(C*)c([N+](=O)[O-])cc1OC
Legend:
[1] = Un-caging of the caged peptide targeter in solution by HPLC-UV; format: physicochemical; settings: ten seconds post illumination, retention time shifts to that of the non-caged targeter
Procedure: HPLC assays were performed on an HP 1100 HPLC system. Samples were injected in 50-μl volumes onto a C18 column. The column was eluted with an aqueous solution at 1 ml/min. The peptides were detected by a UV detector with absorbance wavelength set at 230 nm.
In order to determine the un-caging ability of the targeter (e.g., the peptide GGGGY(DMNB)IGSR—NH2 (SEQ ID NO: 2)) leading to its transformation to the active state, solutions of non-caged peptide (GGGGYIGSR-NH2) (SEQ ID NO: 2), or caged peptides subjected or not subjected to 1 min of illumination were evaluated by HPLC-UV. Retention time in the column of the non-caged targeter was ˜20 min (FIG. 3A) while that of the non-illuminated caged targeter was longer (˜30 min, FIG. 3B) due to the caging group existence which increases the hydrophobicity of the peptide. Ten seconds post illumination a shift in the retention time had occurred and the peptide had exited the column after ˜20 min (FIG. 3C).

integrin β1 = integrin β1 (Homo sapiens, UniProt P05556); settings: previously shown; cited from earlier work
Sequence of integrin β1 (P05556 21-798, species assumed): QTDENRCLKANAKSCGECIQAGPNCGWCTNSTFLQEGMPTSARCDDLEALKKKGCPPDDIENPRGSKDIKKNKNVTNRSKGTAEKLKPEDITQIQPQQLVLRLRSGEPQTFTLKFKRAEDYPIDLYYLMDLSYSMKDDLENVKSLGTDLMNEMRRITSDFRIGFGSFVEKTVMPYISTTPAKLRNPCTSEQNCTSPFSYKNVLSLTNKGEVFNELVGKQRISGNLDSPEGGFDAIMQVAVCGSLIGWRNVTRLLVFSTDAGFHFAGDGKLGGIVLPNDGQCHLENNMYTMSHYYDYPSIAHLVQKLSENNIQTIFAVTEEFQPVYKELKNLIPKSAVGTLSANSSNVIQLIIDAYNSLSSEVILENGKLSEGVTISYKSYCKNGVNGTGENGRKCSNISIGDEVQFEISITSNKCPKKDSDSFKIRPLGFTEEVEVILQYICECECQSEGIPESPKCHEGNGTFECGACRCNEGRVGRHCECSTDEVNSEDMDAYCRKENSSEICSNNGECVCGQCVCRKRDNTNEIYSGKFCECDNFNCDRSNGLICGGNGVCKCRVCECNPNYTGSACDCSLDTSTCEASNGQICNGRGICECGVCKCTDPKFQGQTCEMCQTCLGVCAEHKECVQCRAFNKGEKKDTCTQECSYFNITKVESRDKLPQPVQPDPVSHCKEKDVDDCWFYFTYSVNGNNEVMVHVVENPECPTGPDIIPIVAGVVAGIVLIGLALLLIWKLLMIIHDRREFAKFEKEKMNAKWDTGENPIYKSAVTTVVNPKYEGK

In the case of “GGGGY(DMNB)IGSR—NH2 (GGGGY(DMNB)IGSR-NH2; N-terminus assumed; SMILES CC[C@H](C)[C@H](NC(=O)[C@H](Cc1ccc(OCc2cc(OC)c(OC)cc2[N+](=O)[O-])cc1)NC(=O)CNC(=O)CNC(=O)CNC(=O)CN)C(=O)NCC(=O)N[C@@H](CO)C(=O)N[C@@H](CCCNC(=N)N)C(N)=O)”, the “release of the caging group from the peptide after illumination” value [1] is reported as “quick release of the caging group”.

In the case of CDPGYIGSR, the “cell adhesion and migration” value (integrin β1) is listed as “promote cell adhesion and migration”.

In the case of YIGSR-NH2, the “cell adhesion and migration” value (integrin β1) is given as “promote cell adhesion and migration”.

From US20130004522A1, “PHOTOTRIGGERED NANOPARTICLES FOR CELL AND TISSUE TARGETING” (priority 2009, published 2013)
